The source of these data is publication PMC9084902, “Low-Molecular Weight Protamine Overcomes Chondroitin Sulfate Inhibition of Neural Regeneration” (Frontiers in Cell and Developmental Biology, 2022).

One data set has as its system cervical spinal cord. Description: distribution of fluorescent LMWP to spinal cord after subcutaneous administration. The following applies: 2 h, confocal. It counts as in vivo, mouse. How it is done: The TAMRA-labelled LMWP was obtained from commercial provider Caslo ApS (DK-2800, Kongens Lyngby, Denmark). Sixteen micrograms of TAMRA-LMWPor unconjugated TAMRA (in 200 ul of 0.9% NaCl) was injected subcutaneously to upper back area to healthy adult mice (n = 2–3 animals/group). At the end of the experiment (2 h after injection), the animals were perfused with PBS and then with 4% paraformaldehyde (PFA) in PBS. The spinal cord was dissected and further fixed in PFA overnight. One hundred µm-thick longitudinal sections of the cervical spinal cord were cut with vibratome and imaged with Zeiss LSM880 confocal, 20x objective.

In data set [1] the test system is hippocampal neurons. Description: cell toxicity seen in neuronal morphology / neuronal cells in vitro. The class given is cell-based, Wistar rat. The method, then:
(§1) The cortex or hippocampus were obtained from 17 days-old Wistar rat embryos and transferred to ice-cold preparation solution. Neurons were further isolated exactly as described earlier in Sahu’s publication ([Sahu et al., 2019]). Primary rat cortical or hippocampal neurons (E17 Wistar rats) were cultured in 96-well plates at the density of 20000 cells/well in Neurobasal medium supplemented with B27 serum substitute, penicillin, streptomycin and L-glutamate for 2 days in vitro (DIV). The plates were precoated with aggrecan (5 ug/ml, 150 µl/well). Protamine or protamine peptides were added to the culture medium at different concentrations. To analyze the effect of protamine or its fragment on neurite outgrowth, the plates were coated with 10 μg/ml of protamine or LMWP. For the experiment with chondroitinase, the aggrecan-coated plates were treated with chondroitinase ABC (Amsbio AMS. E1028, lot CF0029) for 4 h followed by 2 times washing with PBS before cell plating, and the cell culture imaging was carried out after 3 DIV incubation with 4 uM LMWP added to the medium. Neurite outgrowth was imaged with phase contrast microscopy (Olympus IX70 microscope and Retiga 2000R digital camera) using both x10 and x20 objectives. Processes of neurons over the diameter of the neuronal soma were interpreted as neurites. Neurite length was measured with ImageJ software and averaged from 2 to 3 independent experiments with 1–2 technical replicas in each independent experiment.

In data set [2] the test system is PTPRZ (protein tyrosine phosphatase receptor type Z). The following applies: ref Kuboyama et al., 2017; cited from earlier work. The text has this: In the case of HB-GAM we have identified glypican-1 as a neuron surface receptor using unbiased mass spectrometry search of neuron binding sites for the substrate-attached HB-GAM ([Paveliev et al., 2016]). […] Interaction of glypican-1 with LMWP also appears likely since LMWP binds to heparin/heparan sulfate chains. Another possible cell surface receptor of LMWP is the transmembrane receptor PTPRZ (protein tyrosine ph ...

In data set [3] the test system is oligodendrocyte differentiation. The following applies: ref Kuboyama et al., 2017; cited from earlier work. The text has this:
The CS chains even enhance the neurite outgrowth-promoting effect of HB-GAM, and we have ended up in a model according to which the CS chains of the CSPGs display a positive role by concentrating HB-GAM on the matrix and presenting it to neuron surface receptors. According to our model, two polycationic regions separated by a linker are essential to reverse the CS inhibition of neurite outgrowth ([Paveliev et al., 2016]; [Rauvala et al., 2017]). To test our hypothesis we decided to search for peptide structures that are similar to HB-GAM and display similar binding properties. Protamine displa ...

The conditions of data set [4]: attenuated total reflectance Fourier transform infrared spectroscopy; ref Umerska et al., 2015; cited from earlier work. The text has this: Chondroitin sulfates (CS) bare multiple negative charges due to sulfate and carboxyl groups while protamine is a polycation at physiological pH values. […] As an FDA-approved drug for human use as anti-heparin, protamine might in addition have potential to overcome the regeneration inhibiting effe ...

Data set [5] has as its system hippocampal neurons. Description: neurite outgrowth on aggrecan substrate, hippocampal neurons. The class given is cell-based, Wistar rat. Conditions: hippocampal neurons (E17 rat), 2 days on aggrecan; 10 μg/ml, precoated with aggrecan or soluble in medium; about 70 neurons/replicate, normalized to control; n = 3; Figure 2L. How it is done: as §1
In data set [6] the test system is hippocampal neurons. Description: neurite outgrowth on precoated plastic without aggrecan, hippocampal neurons. It counts as cell-based, Wistar rat. The following applies: precoated 10 μg/ml on plastic, no aggrecan, 2 days; about 70 neurons/replicate; p < 0.0001, n = 7. The method, then: as §1, with “Processes of neurons over the diameter of the neuronal soma were interpreted as neurites.” left out

For data set [7] the following is noted: ref Kaneda et al., 2005; Bromfield et al., 2013; cited from earlier work. The text has this:
Protamine is a small 33 amino acid long protein that takes part in DNA packing during spermatogenesis ([Kasinsky et al., 2011]). Over 60% of the salmon protamine sequence is comprised of arginines so that it interacts strongly with negatively charged DNA phosphates in vivo and potentially with any other negatively charged molecules. […] Protamine sulfate is therefore widely used as a drug in cardiopulmonary bypass surgery to stop the effect of heparin ([Kaneda et al., 2005]; [Bromfield et al. ... || The CS chains even enhance the neurite outgrowth-promoting effect of HB-GAM, and we have ended up in a model according to which the CS chains of the CSPGs display a positive role by concentrating HB-GAM on the matrix and presenting it to neuron surface receptors. According to our model, two polycationic regions separated by a linker are essential to reverse the CS inhibition of neurite outgrowth ([Paveliev et al., 2016]; [Rauvala et al., 2017]). To test our hypothesis we decided to search for peptide structures that are similar to HB-GAM and display similar binding properties. Protamine displa ...

For a further data set, the system named is brain cortex tissue. The data set can be described thus: in vivo TUNEL apoptosis assay after cortical injection. The following applies: 1.5 μl cortical injection, 0.1 or 1 mg/ml, 3 days. The method, then:
For TUNEL apoptosis assay, 1.5 μl of protamine (0.1 mg/ml or 1 mg/ml) or LMWP (0.1 mg/ml or 1 mg/ml) was bilaterally injected to the adult C57Bl6 mouse (n = 10 total) into motor (ML: 1.5; AP: 2) and somatosensory (ML: 1.5; AP: −1.8) cerebral cortex 500–700 micrometers below the brain surface (4 injection sites per concentration of injected protamine and 6 injections per concentration of injected LMWP). After 3 days the animals were anesthetized with pentobarbital sodium and perfused with PBS and then 4%PFA. After paraffine embedding the brains were cut into 7 µm coronal sections. Staining was performed according to the protocol recommended by the commercial TUNEL assay kit (Dead End Fluorometric TUNEL System, Promega). Sections treated with DNase I were used as positive controls. Vectoshield medium with DAPI (Vector Laboratories) was used to visualize nuclei. Images were collected with Axio Imager M.1 fluorescent microscope (Zeiss), AxioCam HR3 digital camera and x10 0.45 NA objective (Carl Zeiss Microscopy) and analyzed with automatic cell counting using FIJI software (Image J, open-source). The fractions of TUNEL positive cells were calculated and averaged over 5 sections per mouse per injection place.

Data set [8] can be described thus: solid phase binding of mutated PTPσ ectodomain to aggrecan. The following applies: 80 nM, 10 μg/ml aggrecan coating, overnight 4°C, HRP anti-Fc/OPD 492 nm. The text has this: The N-terminal extracellular part of PTPσ (protein tyrosine phosphatase sigma; PTPRS) that contains the three Ig domains (amino acids 1-321) and mediates CSPG binding ([Shen et al., 2009]) was cloned using the PTPσ cDNA kindly provided by Dr. John Flanagan (Harvard University). The PTPσ mutant lacking the CS binding site in the Ig1 domain was produced as described ([Shen et al., 2009]). The recombinants were produced as Fc-tagged proteins in 293T HEK cells and purified on protein A Sepharose.
The competition assay for LMWP in binding of PTPσ to aggrecan was done in a similar way as earlier ([Paveliev et al., 2016]). Briefly, after overnight coating with 10 μg/ml aggrecan (150 ul/well) at 4°C 96-well tissue culture plates (Nunc) were washed two times with 0.05% Tween-20 in PBS and were blocked for 1 h at room temperature with 1%BSA and 0.05% Tween-20 in PBS. The recombinant wild type PTPσ ectodomain or the mutated ectodomain lacking CS binding (80 nM) were mixed with different concentrations of LMWP in 1% BSA and 0.05% Tween-20 in PBS, and were incubated in the plates overnight at 4°C. After washing with 0.05% Tween20 (3 times, room temperature), the wells were incubated for 1 h (room temperature) with HRP conjugated goat anti-human FC part of IgG (1:5000, in 1% BSA and 0.05% Tween20 PBS) to detect the bound PTPσ. […]

Ends that are not written are not given here.

As to “TAMRA-LMWP: fluorescent TAMRA-labelled LMWP (Caslo ApS) (VSRRRRRRGGRRRR; also: TAMRA label, site not given here)”, in the data set on cervical spinal cord (16 µg s.c. in 200 µl 0.9% NaCl, compared to TAMRA or noninjected animals, n = 2–3), the “fluorescent signal in spinal cord parenchyma” value is “clear fluorescent signal in the spinal cord parenchyma”. In the data set on cervical spinal cord (16 µg s.c., cervical region), the “parenchymal accumulation in spinal cord” value was “Parenchymal accumulation” and the “perivascular accumulation in spinal cord” value was “Perivascular accumulation”.

Consider protamine, for which the “signs of cell toxicity in neuronal morphology” value with hippocampal neurons [1] (hippocampal neurons, 2 days on aggrecan, 10 μg/ml, black arrows point to dead cells, Figure 2E,G) is on record as “Signs of cell toxicity were observed in neuronal morphology”. In the data set with hippocampal neurons [1] (neuronal systems, Figures 2, 4), the “toxicity for neuronal cells (summary)” value is on record as “toxic for neuronal cells”. In data set [2], the “binding to PTPRZ” value is “known to bind protamine”. Moreover, the “effect on CSPG-mediated inhibition of oligodendrocyte differentiation” value in [3] was “neutralizes the CSPG-mediated inhibition of oligodendrocyte differentiation”. Further, the “polyion complexation with CS” value in data set [4] is recorded as “Polyion complexation of CS with protamine was demonstrated”. The “reversal of the inhibitory effect of aggrecan on neurite outgrowth (comparison among fragments)” value with hippocampal neurons [5] was “lower efficacy in the neurite outgrowth assay”. Also, in the data set with hippocampal neurons [6], the “total neurite length versus uncoated control” value is “increased the total neurite length as compared to the parallel control cultures”. Besides, the affinity for heparin result in data set [7] is recorded as “binds the glycosaminoglycan heparin with high affinity”. Moreover, in the data set with brain cortex tissue, the “apoptotic cells in brain cortex (TUNEL staining)” value is “high amount of apoptotic cells in brain cortex tissue”.

B1: recombinant ectodomain of PTPσ mutated in a critical lysine residue: PTPσ mutant lacking the CS binding site in the Ig1 domain, Fc-tagged, produced in 293T HEK cells (protein, UniProt Q13332 30-1282, looked up)
extracellular domain: EEPPRFIKEPKDQIGVSGGVASFVCQATGDPKPRVTWNKKGKKVNSQRFETIEFDESAGAVLRIQPLRTPRDENVYECVAQNSVGEITVHAKLTVLREDQLPSGFPNIDMGPQLKVVERTRTATMLCAASGNPDPEITWFKDFLPVDPSASNGRIKQLRSETFESTPIRGALQIESSEETDQGKYECVATNSAGVRYSSPANLYVRELREVRRVAPRFSILPMSHEIMPGGNVNITCVAVGSPMPYVKWMQGAEDLTPEDDMPVGRNVLELTDVKDSANYTCVAMSSLGVIEAVAQITVKSLPKAPGTPMVTENTATSITITWDSGNPDPVSYYVIEYKSKSQDGPYQIKEDITTTRYSIGGLSPNSEYEIWVSAVNSIGQGPPSESVVTRTGEQAPASAPRNVQARMLSATTMIVQWEEPVEPNGLIRGYRVYYTMEPEHPVGNWQKHNVDDSLLTTVGSLLEDETYTVRVLAFTSVGDGPLSDPIQVKTQQGVPGQPMNLRAEARSETSITLSWSPPRQESIIKYELLFREGDHGREVGRTFDPTTSYVVEDLKPNTEYAFRLAARSPQGLGAFTPVVRQRTLQSKPSAPPQDVKCVSVRSTAILVSWRPPPPETHNGALVGYSVRYRPLGSEDPEPKEVNGIPPTTTQILLEALEKWTQYRITTVAHTEVGPGPESSPVVVRTDEDVPSAPPRKVEAEALNATAIRVLWRSPAPGRQHGQIRGYQVHYVRMEGAEARGPPRIKDVMLADAQWETDDTAEYEMVITNLQPETAYSITVAAYTMKGDGARSKPKVVVTKGAVLGRPTLSVQQTPEGSLLARWEPPAGTAEDQVLGYRLQFGREDSTPLATLEFPPSEDRYTASGVHKGATYVFRLAARSRGGLGEEAAEVLSIPEDTPRGHPQILEAAGNASAGTVLLRWLPPVPAERNGAIVKYTVAVREAGALGPARETELPAAAEPGAENALTLQGLKPDTAYDLQVRAHTRRGPGPFSPPVRYRTFLRDQVSPKNFKVKMIMKTSVLLSWEFPDNYNSPTPYKIQYNGLTLDVDGRTTKKLITHLKPHTFYNFVLTNRGSSLGGLQQTVTAWTAFNLLNGKPSVAPKPDADGFIMVYLPDGQSPVPVQSYFIVMVPLRKSRGGQFLTPLGSPEDMDLEELIQDISRLQRRSLRHSRQLEVPRPYIAARFSVLPPTFHPGDQKQYGGFDNRGLEPGHRYVLFVLAVLQKSEPTFAASPFSDPFQLDNPDPQPIVDGEEG
modifications: extracellular domain lysine mutation in Ig1 (position not given); Fc tag
As for B1, the “binding to CS chains of aggrecan” value in data set [8] was “lacks the ability to bind to CS chains of the aggrecan substrate”.
